The results in this text go back to US20050171004A1, “Use of cardiotrophin-1 to promote wound healing and counteract overt fibrosis” (priority 2003, published 2005).

Assay type in all cases: cell-based, rat
Assay [1] has as its system cardiac fibroblasts. In words: Protein synthesis assay (3H-leucine incorporation). The settings on record: CT-1 for 24 hours. Here is the method: Protein synthesis was determined using the methods of Wolf and Neilson (Wolf and Neilson, 1990, Am J Physiol 259: 768-777). 2.5×10^4 cells (counted with a hemacytometer) were loaded into each well of 24-well plates, allowed to attach overnight, then rendered quiescent in serum free DMEM/F12 for 24 hours. Cells were stimulated with CT-1 for an additional 24 hours in the presence of 2 μCi/mL ^3H-leucine with or without inhibitors of signaling pathways. The culture media was aspirated, cells rinsed twice with phosphate buffered saline and proteins precipitated by two incubations with 10% TCA at room temperature. The precipitated protein was solubilized in 300 μl lysis buffer containing 0.5 M NaOH and 1% Triton X-100 at room temperature for 15 minutes. The lysate was transferred to scintillation vials, and beta emission was determined with 3 ml Ecolume scintillation fluid (ICN Pharmaceuticals) and a scintillation counter (LS6500, Beckman Coulter, Fullerton, Calif.).

Assay [2] deals with cardiac fibroblasts. The experiment in a line: Wounded monolayer model, cortactin immunostaining. The settings on record: 4 hours after creation of the wound. Here is the method: Cardiac fibroblasts were seeded onto coverslips in 6-well dishes and allowed to proliferate. Once the cells were near confluency, they were serum deprived for 24 hours. A scrape was made down the middle of the coverslip with the blunt end of a 1 ml syringe and the media was changed again. Cells were further incubated in the presence or absence of CT-1 and inhibitors at specified concentrations for specified times. The cells were then subjected to immunofluorescence staining as described herein.

Assay [3] relates to cardiac fibroblasts. The experiment in a line: Western analysis of phosphorylation of translational regulatory proteins. The settings on record: stimulation with CT-1. Here is the method: Protein concentrations of tissue and cell lysates were determined by the BCA method (Smith et al., 1985, Anal Biochem 150: 76-85). Proteins were separated by 8-12% SDS-PAGE and transferred to PVDF membrane (Roche, Indianapolis, Ind.) for 1 hour at 300 mA for small proteins or for 2 hours at 500 mA for proteins greater than 100 kDa. Membranes were blocked with 5% non-fat skim milk in tris-buffered saline containing 0.2% Tween 20 (TBST). Proteins were visualized with ECL Plus (Amersham) after probing with primary and secondary antibodies. Band intensity was quantified using a CCD camera imaging densitometer (GS670, Bio-Rad Laboratories (Canada) Ltd. Mississauga, Ontario).
To determine the effect of CT-1 on protein synthesis in cardiac fibroblasts we measured incorporation of ^3H-labeled leucine. […] Since the activity of translational regulatory proteins is modified by phosphorylation, we used phospho-specific antibodies to determine if CT-1 directly influenced the activity of these regulatory proteins.
We then determined the effect of pharmacologic inhibitors on the activation of this signaling cascade.

Assay [4] deals with cardiac fibroblasts. The experiment in a line: Western analysis of signaling pathways activated by CT-1 in cardiac fibroblasts. The settings on record: cardiac fibroblasts incubated with CT-1. Here is the method:
Fibroblasts were isolated from the hearts of 200-250 g adult male Sprague-Dawley rats as previously described (Hao et al., 2000, Am J Physiol Heart Circ Physiol 279: H3020-H3030). Briefly, hearts were subjected to Langendorff perfusion at 37° C. with Joklik's medium containing 0.1% collagenase (Worthington Biochemical Corporation, Lakewood, N.J.) for 20-25 minutes. Collagenase was neutralized by addition of an equal volume of DMEM/F12 medium containing 10% FBS and liberated cells were collected by centrifugation at 500×g for 5 minutes. Cells were resuspended in fresh DMEM/F12 containing 10% FBS and plated on 75 cm^2 culture flasks at 37° C. with 5% CO2 for 3 hours. Non adherent cells (myocytes) were removed by changing the culture media and adherent cells (mainly fibroblasts) were incubated in DMEM/F12 containing 10% FBS, 100 U/mL penicillin, 100 μg/mL streptomycin, and 100 μM ascorbate. Fibroblasts were used for experiments after the second passage and the purity of these cells was ≧95%, using routine phenotyping methods as previously described (Peterson et al., 1999, Cardiovasc Res 41: 575-585). […] Cells were rendered quiescent by incubation in serum-free medium for 24 hours then stimulated with CT-1 for specified times and lysed in RIPA buffer (150 mM NaCl, 1% Triton X-100, 0.5% deoxycholate, 0.1% SDS, 50 mM Tris) with 1× protease inhibitor cocktail (Sigma-Aldrich, Oakville, Ontario) and 10 mM NaF, 1 mM Na3VO4 and 1 mM EGTA.
Protein concentrations of tissue and cell lysates were determined by the BCA method (Smith et al., 1985, Anal Biochem 150: 76-85). Proteins were separated by 8-12% SDS-PAGE and transferred to PVDF membrane (Roche, Indianapolis, Ind.) for 1 hour at 300 mA for small proteins or for 2 hours at 500 mA for proteins greater than 100 kDa. Membranes were blocked with 5% non-fat skim milk in tris-buffered saline containing 0.2% Tween 20 (TBST). […] Band intensity was quantified using a CCD camera imaging densitometer (GS670, Bio-Rad Laboratories (Canada) Ltd. Mississauga, Ontario). […]

The test system of assay [5] is cardiac fibroblasts. The experiment in a line: Nuclear accumulation of PCNA. To be noted: CT-1 for 24 hours. Here is the method:
Cardiac fibroblasts were seeded onto cover slips and allowed to attach overnight. The cells were incubated with serum free media for 24 hours prior to stimulation with CT-1 for an additional 24 hours. The cells were then fixed with cold acetone, permeabilized and immunostained for PCNA and counter stained with Hoechst 33342. Images from 5 high power fields per slide were captured and cells were counted. Nuclei that were positive for PCNA were counted and expressed as a ratio to total nuclei.

Assay [6] concerns cardiac fibroblasts. In words: 3H-thymidine incorporation (DNA synthesis) proliferation assay. Here is the method:
DNA synthesis was measured by uptake of ^3H-thymidine as previously described (Saward and Zahradka, 1997, Mol Cell Biochem 176: 53-59) with modification. Briefly, 2.5×10^4 cells (counted with a hemacytometer) in DMEM/F12 with 10% FBS were loaded into each well of 24-well culture plates, allowed to attach overnight and rendered quiescent in serum-free DMEM with 100 μM ascorbate for 24 hours. S-phase re-entry in response to CT-1 was measured in two ways: pulse labeling with ^3H-thymidine for 30 minutes every 6 hours, or labeling for the last 30 minutes of 6 or 12 hour incubation. DNA in cell lysate was precipitated with cold 20% trichloroacetic acid (TCA) and filtered through GF/A filters (Fisher). Beta emission from the dried filers was measured with Cytoscint scintillation fluid (ICN Pharmaceuticals, Costa Mesa, Calif.) and a scintillation counter (LS6500, Beckman Coulter, Fullerton, Calif.).
(Dividing cells build labelled thymidine or BrdU into new DNA.)

B1: cardiotrophin-1 (protein, UniProt Q16619 1-201, looked up)
Cardiotrophin-1: MSRREGSLEDPQTDSSVSLLPHLEAKIRQTHSLAHLLTKYAEQLLQEYVQLQGDPFGLPSFSPPRLPVAGLSAPAPSHAGLPVHERLRLDAAALAALPPLLDAVCRRQAELNPRAPRLLRRLEDAARQARALGAAVEALLAALGAANRGPRAEPPAATASAASATGVFPAKVLGLRVCGLYREWLSRTEGDLGQLLPGGSA
notes: gp130 signaling cytokine of the LIF or IL-6 superfamily; 201 amino acids as a mature protein, 21.5 kDa
As for B1, the “protein synthesis (3H-leucine incorporation)” value with cardiac fibroblasts [1] is recorded as “dose-dependent increase in protein synthesis”. For the same molecule, in the assay with cardiac fibroblasts [2], the localization of cortactin result is “at the leading edge of lamellipodia”. In the assay with cardiac fibroblasts [3], the “phosphorylation of Akt T308/S473, p70 S6 kinase T389 and S421/T424, Mnk1, eIF4E, 4E-BP1 and S6 ribosomal protein” value is reported as “induced an increase in phosphorylation”. Also, in the assay with cardiac fibroblasts [4], the “phosphorylation of gp130, Jak1, Jak2, STAT3, STAT1” value was “resulted in phosphorylation”; the “phosphorylation of p42/44 MAPK, p38 MAPK, JNK and Src” value is given as “observed phosphorylation”. Also, the “Phosphorylation of STAT5 or STAT6” value with cardiac fibroblasts [4] (data not shown) is “not observed”. Moreover, the “nuclear expression of PCNA” value in the assay on cardiac fibroblasts [5] is “increased nuclear expression of PCNA”. Also, in the assay with cardiac fibroblasts [6] (6 or 12 hours incubation), the “CT-1 dose of peak 3H thymidine incorporation (maximal DNA synthesis)” value lay within 10 to 20 ng/mL and the “lowest CT-1 concentration with elevated incorporation of 3H thymidine” value turned out to be 1 ng/mL. Moreover, the “pathway dependence of CT-1 induced cell proliferation (DNA synthesis)” value in the assay on cardiac fibroblasts [6] (pretreatment with inhibitors, CT-1 10 ng/mL for 12 hours) is “dependent on Jak, P13-K, MAPK, and Src kinases”. Besides, the “time to S-phase re-entry after addition of CT-1” value in the assay on cardiac fibroblasts [6] (quiescent cells, 10 ng/mL CT-1, 3H-thymidine pulse labeling) was at most 6 h.
